Patent publication US11130793B2, “GLP-1/GLP-2 dual agonists” (Zealand Pharma A/S, priority 2016, dated 2021)
Square brackets hold non-standard residues; d marks the D form. Aib = CC(C)(N)C(=O)O

T1: human GLP-2 receptor (hGLP2-R) (human, UniProt O95838)
T1 sequence: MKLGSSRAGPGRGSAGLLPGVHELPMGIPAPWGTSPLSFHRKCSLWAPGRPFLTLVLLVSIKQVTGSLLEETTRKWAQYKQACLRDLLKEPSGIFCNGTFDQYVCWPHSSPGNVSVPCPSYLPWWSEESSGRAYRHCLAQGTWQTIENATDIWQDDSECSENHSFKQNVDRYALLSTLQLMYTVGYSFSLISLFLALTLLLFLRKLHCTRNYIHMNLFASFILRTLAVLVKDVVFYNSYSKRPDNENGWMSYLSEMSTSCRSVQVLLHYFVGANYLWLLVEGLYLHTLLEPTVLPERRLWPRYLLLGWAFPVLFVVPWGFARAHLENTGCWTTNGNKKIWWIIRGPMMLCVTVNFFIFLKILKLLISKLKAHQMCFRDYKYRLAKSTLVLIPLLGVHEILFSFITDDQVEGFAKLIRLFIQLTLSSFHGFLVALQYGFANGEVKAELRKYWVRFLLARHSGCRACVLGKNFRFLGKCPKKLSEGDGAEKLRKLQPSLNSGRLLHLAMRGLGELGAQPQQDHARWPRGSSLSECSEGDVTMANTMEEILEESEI

B1: Compound 17 (peptide)
peptide: H-H[Aib]EGTFTSELATILDEQAARDFIAWLIRHKITD-OH
SMILES: CC[C@H](C)[C@H](NC(=O)[C@H](Cc1ccccc1)NC(=O)[C@H](CC(=O)O)NC(=O)[C@H](CCCNC(=N)N)NC(=O)[C@H](C)NC(=O)[C@H](C)NC(=O)[C@H](CCC(N)=O)NC(=O)[C@H](CCC(=O)O)NC(=O)[C@H](CC(=O)O)NC(=O)[C@H](CC(C)C)NC(=O)[C@@H](NC(=O)[C@@H](NC(=O)[C@H](C)NC(=O)[C@H](CC(C)C)NC(=O)[C@H](CCC(=O)O)NC(=O)[C@H](CO)NC(=O)[C@@H](NC(=O)[C@H](Cc1ccccc1)NC(=O)[C@@H](NC(=O)CNC(=O)[C@H](CCC(=O)O)NC(=O)C(C)(C)NC(=O)[C@@H](N)Cc1c[nH]cn1)[C@@H](C)O)[C@@H](C)O)[C@@H](C)O)[C@@H](C)CC)C(=O)N[C@@H](C)C(=O)N[C@@H](Cc1c[nH]c2ccccc12)C(=O)N[C@@H](CC(C)C)C(=O)N[C@H](C(=O)N[C@@H](CCCNC(=N)N)C(=O)N[C@@H](Cc1c[nH]cn1)C(=O)N[C@@H](CCCCN)C(=O)N[C@H](C(=O)N[C@H](C(=O)N[C@@H](CC(=O)O)C(=O)O)[C@@H](C)O)[C@@H](C)CC)[C@@H](C)CC
B2: Compound 19 (peptide)
peptide: H-H[Aib]EGTFTSELATILDEQAARDFIAWLIAQKITD-OH
SMILES: CC[C@H](C)[C@H](NC(=O)[C@H](CC(C)C)NC(=O)[C@H](Cc1c[nH]c2ccccc12)NC(=O)[C@H](C)NC(=O)[C@@H](NC(=O)[C@H](Cc1ccccc1)NC(=O)[C@H](CC(=O)O)NC(=O)[C@H](CCCNC(=N)N)NC(=O)[C@H](C)NC(=O)[C@H](C)NC(=O)[C@H](CCC(N)=O)NC(=O)[C@H](CCC(=O)O)NC(=O)[C@H](CC(=O)O)NC(=O)[C@H](CC(C)C)NC(=O)[C@@H](NC(=O)[C@@H](NC(=O)[C@H](C)NC(=O)[C@H](CC(C)C)NC(=O)[C@H](CCC(=O)O)NC(=O)[C@H](CO)NC(=O)[C@@H](NC(=O)[C@H](Cc1ccccc1)NC(=O)[C@@H](NC(=O)CNC(=O)[C@H](CCC(=O)O)NC(=O)C(C)(C)NC(=O)[C@@H](N)Cc1c[nH]cn1)[C@@H](C)O)[C@@H](C)O)[C@@H](C)O)[C@@H](C)CC)[C@@H](C)CC)C(=O)N[C@@H](C)C(=O)N[C@@H](CCC(N)=O)C(=O)N[C@@H](CCCCN)C(=O)N[C@H](C(=O)N[C@H](C(=O)N[C@@H](CC(=O)O)C(=O)O)[C@@H](C)O)[C@@H](C)CC
B3: Compound 20 (peptide)
peptide: H-H[Aib]EGTFTSELATILDEQAARDFIAWLIAYKITD-OH
SMILES: CC[C@H](C)[C@H](NC(=O)[C@H](CC(C)C)NC(=O)[C@H](Cc1c[nH]c2ccccc12)NC(=O)[C@H](C)NC(=O)[C@@H](NC(=O)[C@H](Cc1ccccc1)NC(=O)[C@H](CC(=O)O)NC(=O)[C@H](CCCNC(=N)N)NC(=O)[C@H](C)NC(=O)[C@H](C)NC(=O)[C@H](CCC(N)=O)NC(=O)[C@H](CCC(=O)O)NC(=O)[C@H](CC(=O)O)NC(=O)[C@H](CC(C)C)NC(=O)[C@@H](NC(=O)[C@@H](NC(=O)[C@H](C)NC(=O)[C@H](CC(C)C)NC(=O)[C@H](CCC(=O)O)NC(=O)[C@H](CO)NC(=O)[C@@H](NC(=O)[C@H](Cc1ccccc1)NC(=O)[C@@H](NC(=O)CNC(=O)[C@H](CCC(=O)O)NC(=O)C(C)(C)NC(=O)[C@@H](N)Cc1c[nH]cn1)[C@@H](C)O)[C@@H](C)O)[C@@H](C)O)[C@@H](C)CC)[C@@H](C)CC)C(=O)N[C@@H](C)C(=O)N[C@@H](Cc1ccc(O)cc1)C(=O)N[C@@H](CCCCN)C(=O)N[C@H](C(=O)N[C@H](C(=O)N[C@@H](CC(=O)O)C(=O)O)[C@@H](C)O)[C@@H](C)CC
B4: Compound 21 (peptide)
peptide: H-H[Aib]EGTFTSELATILDEQAARDFIAWLHQHKITD-OH
SMILES: CC[C@H](C)[C@H](NC(=O)[C@H](Cc1ccccc1)NC(=O)[C@H](CC(=O)O)NC(=O)[C@H](CCCNC(=N)N)NC(=O)[C@H](C)NC(=O)[C@H](C)NC(=O)[C@H](CCC(N)=O)NC(=O)[C@H](CCC(=O)O)NC(=O)[C@H](CC(=O)O)NC(=O)[C@H](CC(C)C)NC(=O)[C@@H](NC(=O)[C@@H](NC(=O)[C@H](C)NC(=O)[C@H](CC(C)C)NC(=O)[C@H](CCC(=O)O)NC(=O)[C@H](CO)NC(=O)[C@@H](NC(=O)[C@H](Cc1ccccc1)NC(=O)[C@@H](NC(=O)CNC(=O)[C@H](CCC(=O)O)NC(=O)C(C)(C)NC(=O)[C@@H](N)Cc1c[nH]cn1)[C@@H](C)O)[C@@H](C)O)[C@@H](C)O)[C@@H](C)CC)C(=O)N[C@@H](C)C(=O)N[C@@H](Cc1c[nH]c2ccccc12)C(=O)N[C@@H](CC(C)C)C(=O)N[C@@H](Cc1c[nH]cn1)C(=O)N[C@@H](CCC(N)=O)C(=O)N[C@@H](Cc1c[nH]cn1)C(=O)N[C@@H](CCCCN)C(=O)N[C@H](C(=O)N[C@H](C(=O)N[C@@H](CC(=O)O)C(=O)O)[C@@H](C)O)[C@@H](C)CC
B5: Compound 23 (peptide)
peptide: H-H[Aib]EGSFTSELATILDEQAARDFIAWLYEHKITD-OH
SMILES: CC[C@H](C)[C@H](NC(=O)[C@H](Cc1ccccc1)NC(=O)[C@H](CC(=O)O)NC(=O)[C@H](CCCNC(=N)N)NC(=O)[C@H](C)NC(=O)[C@H](C)NC(=O)[C@H](CCC(N)=O)NC(=O)[C@H](CCC(=O)O)NC(=O)[C@H](CC(=O)O)NC(=O)[C@H](CC(C)C)NC(=O)[C@@H](NC(=O)[C@@H](NC(=O)[C@H](C)NC(=O)[C@H](CC(C)C)NC(=O)[C@H](CCC(=O)O)NC(=O)[C@H](CO)NC(=O)[C@@H](NC(=O)[C@H](Cc1ccccc1)NC(=O)[C@H](CO)NC(=O)CNC(=O)[C@H](CCC(=O)O)NC(=O)C(C)(C)NC(=O)[C@@H](N)Cc1c[nH]cn1)[C@@H](C)O)[C@@H](C)O)[C@@H](C)CC)C(=O)N[C@@H](C)C(=O)N[C@@H](Cc1c[nH]c2ccccc12)C(=O)N[C@@H](CC(C)C)C(=O)N[C@@H](Cc1ccc(O)cc1)C(=O)N[C@@H](CCC(=O)O)C(=O)N[C@@H](Cc1c[nH]cn1)C(=O)N[C@@H](CCCCN)C(=O)N[C@H](C(=O)N[C@H](C(=O)N[C@@H](CC(=O)O)C(=O)O)[C@@H](C)O)[C@@H](C)CC
B6: Compound 22 (peptide)
peptide: H-H[Aib]EGSFTSELATILDEQAARDFIAWLHAHKITD-OH
SMILES: CC[C@H](C)[C@H](NC(=O)[C@H](Cc1ccccc1)NC(=O)[C@H](CC(=O)O)NC(=O)[C@H](CCCNC(=N)N)NC(=O)[C@H](C)NC(=O)[C@H](C)NC(=O)[C@H](CCC(N)=O)NC(=O)[C@H](CCC(=O)O)NC(=O)[C@H](CC(=O)O)NC(=O)[C@H](CC(C)C)NC(=O)[C@@H](NC(=O)[C@@H](NC(=O)[C@H](C)NC(=O)[C@H](CC(C)C)NC(=O)[C@H](CCC(=O)O)NC(=O)[C@H](CO)NC(=O)[C@@H](NC(=O)[C@H](Cc1ccccc1)NC(=O)[C@H](CO)NC(=O)CNC(=O)[C@H](CCC(=O)O)NC(=O)C(C)(C)NC(=O)[C@@H](N)Cc1c[nH]cn1)[C@@H](C)O)[C@@H](C)O)[C@@H](C)CC)C(=O)N[C@@H](C)C(=O)N[C@@H](Cc1c[nH]c2ccccc12)C(=O)N[C@@H](CC(C)C)C(=O)N[C@@H](Cc1c[nH]cn1)C(=O)N[C@@H](C)C(=O)N[C@@H](Cc1c[nH]cn1)C(=O)N[C@@H](CCCCN)C(=O)N[C@H](C(=O)N[C@H](C(=O)N[C@@H](CC(=O)O)C(=O)O)[C@@H](C)O)[C@@H](C)CC
B7: Compound 18 (peptide)
peptide: H-H[Aib]EGTFTSELATILDEQAARDFIAWLISHKITD-OH
SMILES: CC[C@H](C)[C@H](NC(=O)[C@H](Cc1ccccc1)NC(=O)[C@H](CC(=O)O)NC(=O)[C@H](CCCNC(=N)N)NC(=O)[C@H](C)NC(=O)[C@H](C)NC(=O)[C@H](CCC(N)=O)NC(=O)[C@H](CCC(=O)O)NC(=O)[C@H](CC(=O)O)NC(=O)[C@H](CC(C)C)NC(=O)[C@@H](NC(=O)[C@@H](NC(=O)[C@H](C)NC(=O)[C@H](CC(C)C)NC(=O)[C@H](CCC(=O)O)NC(=O)[C@H](CO)NC(=O)[C@@H](NC(=O)[C@H](Cc1ccccc1)NC(=O)[C@@H](NC(=O)CNC(=O)[C@H](CCC(=O)O)NC(=O)C(C)(C)NC(=O)[C@@H](N)Cc1c[nH]cn1)[C@@H](C)O)[C@@H](C)O)[C@@H](C)O)[C@@H](C)CC)C(=O)N[C@@H](C)C(=O)N[C@@H](Cc1c[nH]c2ccccc12)C(=O)N[C@@H](CC(C)C)C(=O)N[C@H](C(=O)N[C@@H](CO)C(=O)N[C@@H](Cc1c[nH]cn1)C(=O)N[C@@H](CCCCN)C(=O)N[C@H](C(=O)N[C@H](C(=O)N[C@@H](CC(=O)O)C(=O)O)[C@@H](C)O)[C@@H](C)CC)[C@@H](C)CC

What follows are binders tested against T1, human GLP-2 receptor (hGLP2-R) (assay: cell-based or functional assay).
With B1 the “EC50 GLP-2 (nM); cAMP AlphaScreen” value was 0.066 nM. B2 was tested, and the “EC50 GLP-2 (nM); cAMP AlphaScreen” value was 0.15 nM. B3 was tested, and the “EC50 GLP-2 (nM); cAMP AlphaScreen” value was 0.26 nM. B4 was tested, and the “EC50 GLP-2 (nM); cAMP AlphaScreen” value was 0.11 nM. B5 was tested, and the “EC50 GLP-2 (nM); cAMP AlphaScreen” value was 0.034 nM. B6 was tested, and the “EC50 GLP-2 (nM); cAMP AlphaScreen” value was 0.042 nM. With B7 the “EC50 GLP-2 (nM); cAMP AlphaScreen” value was 0.054 nM.

What follows are binders tested against human glucagon-like peptide 1 receptor (GLP-1R) (human, UniProt P43220) (assay: cell-based or functional assay).
In the case of B1, the “EC50 GLP-1 (nM); cAMP AlphaScreen” value is reported as 0.006 nM. For B2, the “EC50 GLP-1 (nM); cAMP AlphaScreen” value was 0.005 nM. With B3 the “EC50 GLP-1 (nM); cAMP AlphaScreen” value was 0.012 nM. With B4 the “EC50 GLP-1 (nM); cAMP AlphaScreen” value was 0.049 nM. For B5, the “EC50 GLP-1 (nM); cAMP AlphaScreen” value was 0.12 nM. B6 was tested, and the “EC50 GLP-1 (nM); cAMP AlphaScreen” value was 0.28 nM. In the case of B7, the “EC50 GLP-1 (nM); cAMP AlphaScreen” value is reported as 0.006 nM.
